Results reported in patent US20240270821A1, “GIP/GLP1/GCG TRI-RECEPTOR AGONISTS AND USES THEREOF” (priority 2023, published 2024).
Positions count from the first letter of the chain named.

T1: human GIP receptor (human) (UniProt P48546)
T1 sequence (looked up): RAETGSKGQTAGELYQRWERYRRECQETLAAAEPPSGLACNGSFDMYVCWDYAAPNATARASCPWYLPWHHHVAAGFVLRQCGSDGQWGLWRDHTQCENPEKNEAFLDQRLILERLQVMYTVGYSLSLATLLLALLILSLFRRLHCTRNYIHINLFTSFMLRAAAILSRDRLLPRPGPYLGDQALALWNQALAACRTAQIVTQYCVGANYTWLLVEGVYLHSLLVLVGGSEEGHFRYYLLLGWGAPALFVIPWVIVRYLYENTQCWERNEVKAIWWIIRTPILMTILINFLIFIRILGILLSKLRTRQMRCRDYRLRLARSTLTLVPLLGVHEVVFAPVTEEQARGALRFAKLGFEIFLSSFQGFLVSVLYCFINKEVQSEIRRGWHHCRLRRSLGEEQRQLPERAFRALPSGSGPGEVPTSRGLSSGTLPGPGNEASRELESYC

B1: Example 450 (peptide)
chain: YXQGTXTSDXXIXLDXKAQXNFIEXLQEGGPSSGEPPPE
modifications: synthetic construct; SITE 2: note = 2-Aminoisobutyric Acid; SITE 6: note = alpha-methyl-2-fluoro-L-phenylalanine; SITE 10: note = 3-(4-Pyridyl)-L-alanine; SITE 11: note = alpha-methyl-L-serine; SITE 13: note = alpha-methyl-leucine; SITE 16: note = L-ornithine; SITE 17: note = Lysine is chemically mo
B2: Example 444 (peptide)
chain: B1 chain with K17I, N21X, Q27I, E28K
modifications: not fully specified; synthetic construct; SITE 2: note = 2-Aminoisobutyric Acid; SITE 6: note = alpha-methyl-2-fluoro-L-phenylalanine; SITE 10: note = 3-(4-Pyridyl)-L-alanine; SITE 11: note = alpha-methyl-L-serine; SITE 13: note = alpha-methyl-leucine; SITE 16: note = L-ornithine; SITE 20: note = 2-Aminoisobutyric Acid;
B3: Example 462 (peptide)
chain: YXQGTXTSDXXIXLDXKAQXXFIEXLIEGGPSSGEPPPEEG
modifications: synthetic construct; SITE 2: note = 2-Aminoisobutyric Acid; SITE 6: note = alpha-methyl-2-fluoro-L-phenylalanine; SITE 10: note = 3-(4-Pyridyl)-L-alanine; SITE 11: note = alpha-methyl-L-serine; SITE 13: note = alpha-methyl-leucine; SITE 16: note = L-ornithine; SITE 17: note = Lysine is chemically mo
B4: Example 441 (peptide)
chain: YXQGTXTSDXSIXLDXKAQXAFIEYLEEGGPSSGAPPPS
modifications: synthetic construct; SITE 2: note = 2-Aminoisobutyric Acid; SITE 6: note = alpha-methyl-2-fluoro-L-phenylalanine; SITE 10: note = 3-(4-Pyridyl)-L-alanine; SITE 13: note = alpha-methyl-leucine; SITE 16: note = L-ornithine; SITE 17: note = Lysine is chemically modified through conjugation of the epsil
B5: Example 442 (peptide)
chain: B4 chain with X16K, A35E
modifications: synthetic construct; SITE 2: note = 2-Aminoisobutyric Acid; SITE 6: note = alpha-methyl-2-fluoro-L-phenylalanine; SITE 10: note = 3-(4-Pyridyl)-L-alanine; SITE 13: note = alpha-methyl-leucine; SITE 17: note = Lysine is chemically modified through conjugation of the epsilon-amino group of the Lysine
B6: Example 446 (peptide)
chain: B4 chain with X16K, E27S
modifications: synthetic construct; SITE 2: note = 2-Aminoisobutyric Acid; SITE 6: note = alpha-methyl-2-fluoro-L-phenylalanine; SITE 10: note = 3-(4-Pyridyl)-L-alanine; SITE 13: note = alpha-methyl-leucine; SITE 17: note = Lysine is chemically modified through conjugation of the epsilon-amino group of the Lysine
B7: Example 464 (peptide)
chain: B4 chain with S11X, X13L, X16K, S39E
modifications: synthetic construct; SITE 2: note = 2-Aminoisobutyric Acid; SITE 6: note = alpha-methyl-2-fluoro-L-phenylalanine; SITE 10: note = 3-(4-Pyridyl)-L-alanine; SITE 11: note = alpha-methyl-L-serine; SITE 17: note = Lysine is chemically modified through conjugation of the epsilon-amino group of the Lysine
B8: Example 445 (peptide)
chain: B4 chain with X16K, S39E
modifications: synthetic construct; SITE 2: note = 2-Aminoisobutyric Acid; SITE 6: note = alpha-methyl-2-fluoro-L-phenylalanine; SITE 10: note = 3-(4-Pyridyl)-L-alanine; SITE 13: note = alpha-methyl-leucine; SITE 17: note = Lysine is chemically modified through conjugation of the epsilon-amino group of the Lysine
B9: Example 443 (peptide)
chain: B4 chain with X16K, P37E
modifications: synthetic construct; SITE 2: note = 2-Aminoisobutyric Acid; SITE 6: note = alpha-methyl-2-fluoro-L-phenylalanine; SITE 10: note = 3-(4-Pyridyl)-L-alanine; SITE 13: note = alpha-methyl-leucine; SITE 17: note = Lysine is chemically modified through conjugation of the epsilon-amino group of the Lysine
B10: Example 465 (peptide)
chain: B4 chain with S11X, X13L, X16K, S39E
modifications: synthetic construct; SITE 2: note = 2-Aminoisobutyric Acid; SITE 6: note = alpha-methyl-2-fluoro-L-phenylalanine; SITE 10: note = 3-(3-Pyridyl)-L-alanine; SITE 11: note = alpha-methyl-L-serine; SITE 17: note = Lysine is chemically modified through conjugation of the epsilon-amino group of the Lysine

The binders below were run against hGLP-1R (Homo sapiens, UniProt P43220) (assay: cell-based or functional assay).
Chain of hGLP-1R (P43220 24-463): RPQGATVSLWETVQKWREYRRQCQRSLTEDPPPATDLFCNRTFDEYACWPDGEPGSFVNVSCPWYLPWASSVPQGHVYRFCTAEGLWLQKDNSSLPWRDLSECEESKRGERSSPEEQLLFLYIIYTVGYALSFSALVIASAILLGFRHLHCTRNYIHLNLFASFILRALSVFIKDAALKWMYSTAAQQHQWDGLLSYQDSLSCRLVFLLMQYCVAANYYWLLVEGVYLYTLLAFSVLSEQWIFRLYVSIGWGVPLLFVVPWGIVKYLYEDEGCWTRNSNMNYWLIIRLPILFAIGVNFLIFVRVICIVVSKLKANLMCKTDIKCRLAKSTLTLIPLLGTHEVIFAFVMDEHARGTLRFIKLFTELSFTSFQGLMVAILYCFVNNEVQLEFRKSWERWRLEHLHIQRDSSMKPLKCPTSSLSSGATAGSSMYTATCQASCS
B1 showed a Relative cAMP EC50, nM (0.1% casein) of 0.43 nM and a cAMP Rel EC50 (receptor-expressing HEK-293 cells, 1% HSA) of 18.4 nM. Work on B2 yielded a Relative cAMP EC50 of 0.352 nM and a cAMP Rel EC50, nM (1% HSA) of 54.6 nM. In the case of B3, the Relative cAMP EC50, nM (0.1% casein) is reported as 0.204 nM and the cAMP Rel EC50 (receptor-expressing HEK-293 cells, 1% HSA) is reported as 12.9 nM. B4 was tested, and the Relative cAMP EC50 was 0.365 nM and the cAMP Rel EC50, nM (1% HSA) was 24.7 nM. Work on B5 yielded a Relative cAMP EC50 of 0.267 nM and a cAMP Rel EC50, nM (1% HSA) of 23.9 nM. In the case of B6, the Relative cAMP EC50 is reported as 0.696 nM and the cAMP Rel EC50, nM (1% HSA) is reported as 24.5 nM. For B7, the Relative cAMP EC50, nM (0.1% casein) was 0.466 nM and the cAMP Rel EC50 (receptor-expressing HEK-293 cells, 1% HSA) was 45.5 nM. In the case of B8, the Relative cAMP EC50 is reported as 0.731 nM and the cAMP Rel EC50, nM (1% HSA) is reported as 23.2 nM. Work on B9 yielded a Relative cAMP EC50 of 0.572 nM and a cAMP Rel EC50, nM (1% HSA) of 34.3 nM. B10 showed a Relative cAMP EC50, nM (0.1% casein) of 0.575 nM and a cAMP Rel EC50 (receptor-expressing HEK-293 cells, 1% HSA) of 56.3 nM.

Each binder was assayed against T1, human GIP receptor (human) (assay: cell-based or functional assay).
Binder B1 has a Relative cAMP EC50, nM (0.1% casein) of 0.0448 nM and a cAMP Rel EC50 (receptor-expressing HEK-293 cells, 1% HSA) of 3.75 nM. B2 gave a Relative cAMP EC50 of 0.0106 nM and a cAMP Rel EC50, nM (1% HSA) of 1.74 nM. Work on B3 yielded a Relative cAMP EC50, nM (0.1% casein) of 0.0148 nM and a cAMP Rel EC50 (receptor-expressing HEK-293 cells, 1% HSA) of 1.62 nM. Work on B4 yielded a Relative cAMP EC50 of 0.0239 nM and a cAMP Rel EC50, nM (1% HSA) of 1.96 nM. B5 was tested, and the Relative cAMP EC50 was 0.0237 nM and the cAMP Rel EC50, nM (1% HSA) was 1.81 nM. B6 was tested, and the Relative cAMP EC50 was 0.0351 nM and the cAMP Rel EC50, nM (1% HSA) was 3.01 nM. With B7 the Relative cAMP EC50, nM (0.1% casein) was 0.072 nM and the cAMP Rel EC50 (receptor-expressing HEK-293 cells, 1% HSA) was 19.9 nM. Work on B8 yielded a Relative cAMP EC50 of 0.0206 nM and a cAMP Rel EC50, nM (1% HSA) of 2.41 nM. B9 showed a Relative cAMP EC50 of 0.0291 nM and a cAMP Rel EC50, nM (1% HSA) of 1.57 nM. For B10, the Relative cAMP EC50, nM (0.1% casein) was 0.148 nM and the cAMP Rel EC50 (receptor-expressing HEK-293 cells, 1% HSA) was 44.6 nM.

What follows are binders tested against human glucagon receptor (human) (UniProt P47871) (assay: cell-based or functional assay).
Chain of human glucagon receptor (human) (P47871 26-477): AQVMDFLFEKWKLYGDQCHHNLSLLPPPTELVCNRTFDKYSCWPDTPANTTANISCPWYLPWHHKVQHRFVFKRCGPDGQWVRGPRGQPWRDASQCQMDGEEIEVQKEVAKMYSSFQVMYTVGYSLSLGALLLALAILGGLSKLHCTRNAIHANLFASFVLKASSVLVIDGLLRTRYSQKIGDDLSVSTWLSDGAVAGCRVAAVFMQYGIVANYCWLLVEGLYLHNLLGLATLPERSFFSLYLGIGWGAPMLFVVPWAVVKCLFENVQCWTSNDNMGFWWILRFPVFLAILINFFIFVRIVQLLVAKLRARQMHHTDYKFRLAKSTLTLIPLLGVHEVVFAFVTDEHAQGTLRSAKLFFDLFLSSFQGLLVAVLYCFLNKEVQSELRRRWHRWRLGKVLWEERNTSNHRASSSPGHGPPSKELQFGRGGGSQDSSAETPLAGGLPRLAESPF
B1 gave a Relative cAMP EC50, nM (0.1% casein) of 4.84 nM and a cAMP Rel EC50 (receptor-expressing HEK-293 cells, 1% HSA) of 553 nM. B2 was tested, and the Relative cAMP EC50 was 6.49 nM and the cAMP Rel EC50, nM (1% HSA) was 1280 nM. B3 was tested, and the Relative cAMP EC50, nM (0.1% casein) was 1.69 nM and the cAMP Rel EC50 (receptor-expressing HEK-293 cells, 1% HSA) was 183 nM. B4 gave a Relative cAMP EC50 of 8 nM and a cAMP Rel EC50, nM (1% HSA) of 855 nM. B5 gave a Relative cAMP EC50 of 5.66 nM and a cAMP Rel EC50, nM (1% HSA) of 342 nM. B6 was tested, and the Relative cAMP EC50 was 8.34 nM and the cAMP Rel EC50, nM (1% HSA) was 516 nM. B7 showed a Relative cAMP EC50, nM (0.1% casein) of 1.25 nM and a cAMP Rel EC50 (receptor-expressing HEK-293 cells, 1% HSA) of 194 nM. B8 showed a Relative cAMP EC50 of 10.1 nM and a cAMP Rel EC50, nM (1% HSA) of 448 nM. B9 showed a Relative cAMP EC50 of 6.09 nM and a cAMP Rel EC50, nM (1% HSA) of 265 nM. B10 was tested, and the Relative cAMP EC50, nM (0.1% casein) was 1.5 nM and the cAMP Rel EC50 (receptor-expressing HEK-293 cells, 1% HSA) was 233 nM.
